This is an account of results in article PMC12637829 (Research Square, 2025).

This series deals with the molecule itself. As to the kind of experiment: cryo-EM structure; amyloid fibrils polymerised from monomer at 4°C with seeds (5% mol/mol) in 5 mM KPi, 150 mM NaCl, pH 7.4, without agitation; third-generation (G3) fibrils.

B1: Sup35NM S17R (domain or fragment, yeast, UniProt P05453 1-253, looked up)
chain: MSDSNQGNNQQNYQQYRQNGNQQQGNNRYQGYQAYNAQAQPAGGYYQNYQGYSGYQQGGYQQYNPDAGYQQQYNPQGGYQQYNPQGGYQQQFNPQGGRGNYKNFNYNNNLQGYQAGFQPQSQGMSLNDFQKQQKQAAPKPKKTLKLVSSSGIKLANATKKVGTKPAESDKKEEEKSAETKEPTKEPTKVEEPVKKEEKPVQTEEKTEEKSELPKVEDLKISESTHNTNNANVTSADALIKEQEEEVDDEVVND
notes: Sup35, yeast translation termination factor; NM domain = N-terminal prion domain (N or PrD) plus the polar M region (M124-D253), with S17R; In the fibril, many copies are stacked along the axis; also called S17R mutant; S17R4 (fibrils formed at 4°C); not shown: 7x histidine, C-terminal, kept
Take B1: the binding result is “binds”.
